Experimental data reported in patent publication US20210403506A1 (XDCEXPLORER SHANGHAI, published 2021).
Square brackets hold non-standard residues; d marks the D form. Primed or numbered codes have the meaning given here. Ends that are not written are not given here. * marks the point of attachment. Pro(trans-4-Ph) = O=C(O)[C@@H]1C[C@@H](c2ccccc2)CN1; Bpa = N[C@@H](Cc1ccc(C(=O)c2ccccc2)cc1)C(=O)O; Pro(5R-Ph) = O=C(O)[C@@H]1CC[C@H](c2ccccc2)N1; dTyr(3-F) = N[C@H](Cc1ccc(O)c(F)c1)C(=O)O; PEG8 = NCCOCCOCCOCCOCCOCCOCCOCCOCCC(=O)O; Pro(diF)″ = difluoroproline (DiFluorPro); 1Nal = N[C@@H](Cc1cccc2ccccc12)C(=O)O; 2Nal = N[C@@H](Cc1ccc2ccccc2c1)C(=O)O; dNMeY = CN[C@H](Cc1ccc(O)cc1)C(=O)O; Palmitoyl = CCCCCCCCCCCCCCCC(=O)*; NMeF = CN[C@@H](Cc1ccccc1)C(=O)O; Tic = O=C(O)[C@@H]1Cc2ccccc2CN1; dTic = O=C(O)[C@H]1Cc2ccccc2CN1; NMeL = CN[C@@H](CC(C)C)C(=O)O; Pro(4Ph) = 4-phenylproline; NMeS = CN[C@@H](CO)C(=O)O; Thz = O=C(O)[C@@H]1CSCN1; Aze = O=C(O)[C@@H]1CCN1; βAla = NCCC(=O)O

T1: human Chemokine like receptor 1 (human, UniProt Q99788 1-373)
T1 sequence (looked up): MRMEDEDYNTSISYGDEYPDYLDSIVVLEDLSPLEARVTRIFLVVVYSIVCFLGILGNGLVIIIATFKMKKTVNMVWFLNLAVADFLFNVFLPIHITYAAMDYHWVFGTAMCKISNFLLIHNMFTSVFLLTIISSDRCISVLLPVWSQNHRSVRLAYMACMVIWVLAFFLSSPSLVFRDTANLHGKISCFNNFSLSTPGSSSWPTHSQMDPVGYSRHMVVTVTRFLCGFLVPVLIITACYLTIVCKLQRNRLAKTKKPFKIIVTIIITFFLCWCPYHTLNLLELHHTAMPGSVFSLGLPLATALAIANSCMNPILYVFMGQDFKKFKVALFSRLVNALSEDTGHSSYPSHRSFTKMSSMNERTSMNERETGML


Target: T1, human Chemokine like receptor 1
Experiment: cell-based or functional assay

Binder | EC50 (µM), activation of Tango CMKLR1-bla U2OS cells [µM]
[dY]FL[Thz][dS]QF[dA][Tic]S-OH (N-terminus assumed; SMILES CC(C)C[C@H](NC(=O)[C@H](Cc1ccccc1)NC(=O)[C@H](N)Cc1ccc(O)cc1)C(=O)N1CSC[C@H]1C(=O)N[C@H](CO)C(=O)N[C@@H](CCC(N)=O)C(=O)N[C@@H](Cc1ccccc1)C(=O)N[C@H](C)C(=O)N1Cc2ccccc2C[C@H]1C(=O)N[C@@H](CO)C(=O)O) [YW-114] | 0.005
[dNMeY]F[NMeL][Pro(diF)″][dS]Q[2Nal][dA][Tic][NMeS]-OH [YW-225] | 0.00064
[dY][NMeF]LP[dS]QF[dA][Tic]S-OH (N-terminus assumed; SMILES CC(C)C[C@H](NC(=O)[C@H](Cc1ccccc1)N(C)C(=O)[C@H](N)Cc1ccc(O)cc1)C(=O)N1CCC[C@H]1C(=O)N[C@H](CO)C(=O)N[C@@H](CCC(N)=O)C(=O)N[C@@H](Cc1ccccc1)C(=O)N[C@H](C)C(=O)N1Cc2ccccc2C[C@H]1C(=O)N[C@@H](CO)C(=O)O) [YW-104] | 0.08
[dY]FLP[dS]Q[Bpa][dA][Tic]S-OH (N-terminus assumed; SMILES CC(C)C[C@H](NC(=O)[C@H](Cc1ccccc1)NC(=O)[C@H](N)Cc1ccc(O)cc1)C(=O)N1CCC[C@H]1C(=O)N[C@H](CO)C(=O)N[C@@H](CCC(N)=O)C(=O)N[C@@H](Cc1ccc(C(=O)c2ccccc2)cc1)C(=O)N[C@H](C)C(=O)N1Cc2ccccc2C[C@H]1C(=O)N[C@@H](CO)C(=O)O) [YW-119] | 0.0099
[dTyr(3-F)]F[NMeL]P[dS]Q[2Nal][dA][Tic][NMeS] (not fully specified (residue 4); printed as (D-Tyr(3F))-Phe-(NMe-Leu)-Pro(tran-4F)-(D-Ser)-Gln-(Nal-2)-(D-Ala)-Tic-(NMe-Ser)) [YW-221] | 0.00068
[dNMeY]F[NMeL]P[dS]Q[2Nal][dA][Tic][NMeS] (not fully specified (residue 4); printed as (NMe-D-Tyr)-Phe-(NMe-Leu)-Pro(tran-4F)-(D-Ser)-Gln-(Nal-2)-(D-Ala)-Tic-(NMe-Ser)) [YW-220] | 0.00067
[dTyr(3-F)]F[NMeL]P[dS]Q[2Nal][dA][Tic]S (not fully specified (residue 4); printed as [D-Tyr(3F)]-Phe-(NMe-Leu)-Pro(tran-4F)-(D-Ser)-Gln-(Nal-2)-(D-Ala)-Tic-Ser) [YW-222] | 0.00034
[dY]FL[S‑Pip][dS]QF[dA][Tic]S [YW-96] | 0.039
[dY]FLP[dS]QF[dA][dTic]S-OH (N-terminus assumed; SMILES CC(C)C[C@H](NC(=O)[C@H](Cc1ccccc1)NC(=O)[C@H](N)Cc1ccc(O)cc1)C(=O)N1CCC[C@H]1C(=O)N[C@H](CO)C(=O)N[C@@H](CCC(N)=O)C(=O)N[C@@H](Cc1ccccc1)C(=O)N[C@H](C)C(=O)N1Cc2ccccc2C[C@@H]1C(=O)N[C@@H](CO)C(=O)O) [YW-149] | 0.021
[dY]F[NMeL][Thz][dS]Q[2Nal][dA][Tic]S-OH [YW-122] | 0.0006
GG[dY]F[NMeL]P[dS]Q[2Nal][dA][Tic]S (not fully specified (residue 6, N-terminus)) [YW-223] | 0.00033
[dY]FL[Pro(4Ph)][dS]QF[dA][Tic]S-OH [YW-113] | 0.0086
[dF]FLP[dS]QF[dA][Tic]S-OH (N-terminus assumed; SMILES CC(C)C[C@H](NC(=O)[C@H](Cc1ccccc1)NC(=O)[C@H](N)Cc1ccccc1)C(=O)N1CCC[C@H]1C(=O)N[C@H](CO)C(=O)N[C@@H](CCC(N)=O)C(=O)N[C@@H](Cc1ccccc1)C(=O)N[C@H](C)C(=O)N1Cc2ccccc2C[C@H]1C(=O)N[C@@H](CO)C(=O)O) [YW-97] | 0.05
[dNMeY]F[NMeL][Thz][dS]QF[dA][Tic]S [YW-123] | 0.001
[dY]F[NMeL][Thz][dS]QF[dA][Tic]S-OH (N-terminus assumed; SMILES CC(C)C[C@@H](C(=O)N1CSC[C@H]1C(=O)N[C@H](CO)C(=O)N[C@@H](CCC(N)=O)C(=O)N[C@@H](Cc1ccccc1)C(=O)N[C@H](C)C(=O)N1Cc2ccccc2C[C@H]1C(=O)N[C@@H](CO)C(=O)O)N(C)C(=O)[C@H](Cc1ccccc1)NC(=O)[C@H](N)Cc1ccc(O)cc1) [YW-121] | 0.0007
[dNMeY]F[NMeL][Pro(4Ph)][dS]Q[2Nal][dA][Tic]S [YW-216] | 0.0013
{Palmitoyl-PEG8}-[βAla][βAla][dNMeY]F[NMeL][Pro(trans-4-Ph)][dS]Q[2Nal][dA][Tic]S [YW-217] | 0.0033
[dY]F[NMeL][Pro(diF)][dS]Q[2Nal][dA][Tic][NMeS] [YW-224] | 0.0013
[dY]FL[Pro(5R-Ph)][dS]QF[dA][Tic]S-OH (N-terminus assumed; SMILES CC(C)C[C@H](NC(=O)[C@H](Cc1ccccc1)NC(=O)[C@H](N)Cc1ccc(O)cc1)C(=O)N1[C@@H](c2ccccc2)CC[C@H]1C(=O)N[C@H](CO)C(=O)N[C@@H](CCC(N)=O)C(=O)N[C@@H](Cc1ccccc1)C(=O)N[C@H](C)C(=O)N1Cc2ccccc2C[C@H]1C(=O)N[C@@H](CO)C(=O)O) [YW-112] | 0.17
[dY]F[NMeL][Pro(trans-4-Ph)][dS]QF[dA][Tic]S [YW-215] | 0.0048
[dY]FLP[dS]Q[2Nal][dA][Tic]S-OH (N-terminus assumed; SMILES CC(C)C[C@H](NC(=O)[C@H](Cc1ccccc1)NC(=O)[C@H](N)Cc1ccc(O)cc1)C(=O)N1CCC[C@H]1C(=O)N[C@H](CO)C(=O)N[C@@H](CCC(N)=O)C(=O)N[C@@H](Cc1ccc2ccccc2c1)C(=O)N[C@H](C)C(=O)N1Cc2ccccc2C[C@H]1C(=O)N[C@@H](CO)C(=O)O) [YW-118] | 0.0069
[dTyr(3-F)]F[NMeL][Pro(diF)″][dS]Q[2Nal][dA][Tic][NMeS]-OH [YW-226] | 0.0033
[dY]FL[Aze][dS]QF[dA][Tic]S-OH (N-terminus assumed; SMILES CC(C)C[C@H](NC(=O)[C@H](Cc1ccccc1)NC(=O)[C@H](N)Cc1ccc(O)cc1)C(=O)N1CC[C@H]1C(=O)N[C@H](CO)C(=O)N[C@@H](CCC(N)=O)C(=O)N[C@@H](Cc1ccccc1)C(=O)N[C@H](C)C(=O)N1Cc2ccccc2C[C@H]1C(=O)N[C@@H](CO)C(=O)O) [YW-115] | 0.19
[dNMeY]FLP[dS]QF[dA][Tic]S-OH (N-terminus assumed; SMILES CN[C@H](Cc1ccc(O)cc1)C(=O)N[C@@H](Cc1ccccc1)C(=O)N[C@@H](CC(C)C)C(=O)N1CCC[C@H]1C(=O)N[C@H](CO)C(=O)N[C@@H](CCC(N)=O)C(=O)N[C@@H](Cc1ccccc1)C(=O)N[C@H](C)C(=O)N1Cc2ccccc2C[C@H]1C(=O)N[C@@H](CO)C(=O)O) [YW-103] | 0.0094
[dY]FLP[dS]Q[1Nal][dA][Tic]S-OH (N-terminus assumed; SMILES CC(C)C[C@H](NC(=O)[C@H](Cc1ccccc1)NC(=O)[C@H](N)Cc1ccc(O)cc1)C(=O)N1CCC[C@H]1C(=O)N[C@H](CO)C(=O)N[C@@H](CCC(N)=O)C(=O)N[C@@H](Cc1cccc2ccccc12)C(=O)N[C@H](C)C(=O)N1Cc2ccccc2C[C@H]1C(=O)N[C@@H](CO)C(=O)O) [YW-117] | 0.0039
[dY]FLP[dS]QF[dA][Tic][NMeS]-OH (N-terminus assumed; SMILES CC(C)C[C@H](NC(=O)[C@H](Cc1ccccc1)NC(=O)[C@H](N)Cc1ccc(O)cc1)C(=O)N1CCC[C@H]1C(=O)N[C@H](CO)C(=O)N[C@@H](CCC(N)=O)C(=O)N[C@@H](Cc1ccccc1)C(=O)N[C@H](C)C(=O)N1Cc2ccccc2C[C@H]1C(=O)N(C)[C@@H](CO)C(=O)O) [YW-110] | 0.013
